In the supplement of paper PMC9112550, “Optimization of the antimicrobial peptide Bac7 by deep mutational scanning” (BMC Biology, 2022):

Tested on: Escherichia coli TOP10
Assay: shrunken log2 fold change of peptide-encoding DNA abundance (4.5 h post-induction vs induction); higher = less antimicrobial activity (less host growth inhibition)
Details: time post-induction: 4.5 h; library: site-saturation at positions 5, 18, 19, 20
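Note: peptides expressed intracellularly from a pBAD plasmid library in pooled LB shake-flask culture, induced with 0.3% L-arabinose, DNA abundance read by NGS, three biological replicates, DESeq2 with apeglm shrinkage.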

| Sequence | shrunken log2 fold change |
| --- | --- |
| RRIRCRPPRLPRPRPRPSNLPRP | -0.425 |
| RRIRQRPPRLPRPRPRPRPKPRP | 0.936 |
| RRIRLRPPRLPRPRPRPLLAPRP | 0.188 |
| RRIRMRPPRLPRPRPRPYNPPRP | -0.21 |
| RRIRFRPPRLPRPRPRPIEQPRP | 0.0187 |
| RRIRNRPPRLPRPRPRPVIRPRP | -0.164 |
| RRIRPRPPRLPRPRPRPTPIPRP | 0.336 |
| RRIRIRPPRLPRPRPRPSHMPRP | -0.425 |
| RRIRWRPPRLPRPRPRPLFMPRP | -0.286 |
| RRIRHRPPRLPRPRPRPSYEPRP | -0.503 |
| RRIRGRPPRLPRPRPRPGPVPRP | 1.24 |
| RRIRDRPPRLPRPRPRPCTGPRP | -0.0116 |
| RRIRLRPPRLPRPRPRPTHKPRP | 0.38 |
| RRIRKRPPRLPRPRPRPQMEPRP | -0.0377 |
| RRIRRRPPRLPRPRPRPGWQPRP | 0.381 |
| RRIRLRPPRLPRPRPRPKFPPRP | -0.26 |
| RRIRWRPPRLPRPRPRPYEIPRP | -0.402 |
| RRIRARPPRLPRPRPRPHRTPRP | -0.115 |
| RRIRCRPPRLPRPRPRPTKFPRP | -0.305 |
| RRIRIRPPRLPRPRPRPWENPRP | -0.00674 |
| RRIRDRPPRLPRPRPRPIEDPRP | -0.0411 |
| RRIRERPPRLPRPRPRPSDEPRP | -0.228 |
| RRIRTRPPRLPRPRPRPCSMPRP | -0.179 |
| RRIRPRPPRLPRPRPRPLSFPRP | -0.132 |
| RRIRKRPPRLPRPRPRPELPPRP | 0.114 |

| Sequence | shrunken log2 fold change |
| --- | --- |
| RRIRARPPRLPRPRPRPNKIPRP | -0.136 |
| RRIRCRPPRLPRPRPRPSCAPRP | -0.0944 |
| RRIRERPPRLPRPRPRPLGDPRP | -0.0627 |
| RRIRLRPPRLPRPRPRPKMVPRP | -0.146 |
| RRIRTRPPRLPRPRPRPVKSPRP | -0.157 |
| RRIRMRPPRLPRPRPRPWPAPRP | 0.807 |
| RRIRPRPPRLPRPRPRPAPSPRP | 0.51 |
| RRIRGRPPRLPRPRPRPHLKPRP | 0.378 |
| RRIRGRPPRLPRPRPRPYQIPRP | -0.118 |
| RRIRHRPPRLPRPRPRPAIGPRP | -0.0264 |
| RRIRPRPPRLPRPRPRPPHPPRP | 0.292 |
| RRIRRRPPRLPRPRPRPYIMPRP | -0.733 |
| RRIRHRPPRLPRPRPRPRCKPRP | -0.053 |
| RRIRIRPPRLPRPRPRPLFGPRP | -0.102 |
| RRIRNRPPRLPRPRPRPEEPPRP | 0.0512 |
| RRIRERPPRLPRPRPRPQFSPRP | -0.0998 |
| RRIRARPPRLPRPRPRPDGHPRP | 0.0106 |
| RRIRDRPPRLPRPRPRPDGPPRP | 0.0462 |
| RRIRPRPPRLPRPRPRPVGGPRP | 0.408 |
| RRIRARPPRLPRPRPRPCYLPRP | -0.262 |
| RRIRCRPPRLPRPRPRPICSPRP | 0.0973 |
| RRIRVRPPRLPRPRPRPETTPRP | 0.348 |
| RRIRDRPPRLPRPRPRPGPRPRP | 0.787 |
| RRIRERPPRLPRPRPRPFSYPRP | -0.0589 |
| RRIRMRPPRLPRPRPRPAVAPRP | 1.04 |

| Sequence | shrunken log2 fold change |
| --- | --- |
| RRIRERPPRLPRPRPRPDAVPRP | -0.0146 |
| RRIRQRPPRLPRPRPRPRQVPRP | 0.302 |
| RRIRMRPPRLPRPRPRPTLEPRP | 0.259 |
| RRIRMRPPRLPRPRPRPLFNPRP | -0.439 |
| RRIRVRPPRLPRPRPRPSGGPRP | 0.104 |
| RRIRERPPRLPRPRPRPIGDPRP | -0.942 |
| RRIRNRPPRLPRPRPRPFIMPRP | -0.889 |
| RRIRVRPPRLPRPRPRPHRDPRP | -0.198 |
| RRIRERPPRLPRPRPRPGMFPRP | -0.837 |
| RRIRSRPPRLPRPRPRPTISPRP | -0.655 |
| RRIRVRPPRLPRPRPRPIDQPRP | 0.216 |
| RRIRVRPPRLPRPRPRPMMDPRP | -0.154 |
| RRIRYRPPRLPRPRPRPTHSPRP | -0.698 |
| RRIRARPPRLPRPRPRPVLFPRP | 0.268 |
| RRIRLRPPRLPRPRPRPQNPPRP | -0.263 |
| RRIRKRPPRLPRPRPRPMNKPRP | 0.0136 |
| RRIRVRPPRLPRPRPRPQPDPRP | 0.23 |
| RRIRCRPPRLPRPRPRPFNPPRP | -0.558 |
| RRIRERPPRLPRPRPRPNHKPRP | -0.823 |
| RRIRGRPPRLPRPRPRPDGGPRP | 0.468 |
| RRIRFRPPRLPRPRPRPLYEPRP | -0.664 |
| RRIRVRPPRLPRPRPRPSAQPRP | 0.0391 |
| RRIRRRPPRLPRPRPRPEELPRP | 0.338 |
| RRIRERPPRLPRPRPRPNKGPRP | -0.164 |
| RRIRCRPPRLPRPRPRPESTPRP | 0.0373 |

| Sequence | shrunken log2 fold change |
| --- | --- |
| RRIRNRPPRLPRPRPRPGHTPRP | -0.175 |
| RRIRGRPPRLPRPRPRPTPYPRP | 0.324 |
| RRIRRRPPRLPRPRPRPHRGPRP | -0.0548 |
| RRIRPRPPRLPRPRPRPHWGPRP | 0.0167 |
| RRIRDRPPRLPRPRPRPEHCPRP | -0.0205 |
| RRIRMRPPRLPRPRPRPMCIPRP | -0.296 |
| RRIRMRPPRLPRPRPRPHFNPRP | -0.0825 |
| RRIRNRPPRLPRPRPRPQNRPRP | -0.184 |
| RRIRFRPPRLPRPRPRPLPNPRP | 0.184 |
| RRIRRRPPRLPRPRPRPKSHPRP | -0.172 |
| RRIRCRPPRLPRPRPRPLGTPRP | -0.583 |
| RRIRLRPPRLPRPRPRPWWAPRP | 0.0811 |
| RRIRCRPPRLPRPRPRPCDKPRP | -0.266 |
| RRIRSRPPRLPRPRPRPEHHPRP | -0.153 |
| RRIRKRPPRLPRPRPRPDQTPRP | -0.0185 |
| RRIRVRPPRLPRPRPRPNCKPRP | -0.368 |
| RRIRTRPPRLPRPRPRPYIHPRP | -0.779 |
| RRIRTRPPRLPRPRPRPGPYPRP | -0.159 |
| RRIRDRPPRLPRPRPRPHLVPRP | -0.0562 |
| RRIRERPPRLPRPRPRPQYFPRP | -0.891 |
| RRIRCRPPRLPRPRPRPLVTPRP | -0.195 |
| RRIRIRPPRLPRPRPRPTSVPRP | -0.18 |
| RRIRDRPPRLPRPRPRPTTDPRP | 0.547 |
| RRIRLRPPRLPRPRPRPEHIPRP | 0.0843 |
| RRIRNRPPRLPRPRPRPIGCPRP | 0.0526 |

| Sequence | shrunken log2 fold change |
| --- | --- |
| RRIRNRPPRLPRPRPRPGVTPRP | 0.0223 |
| RRIRRRPPRLPRPRPRPEKDPRP | 0.0399 |
| RRIRNRPPRLPRPRPRPDTDPRP | 0.0251 |
| RRIRLRPPRLPRPRPRPRHFPRP | -0.131 |
| RRIRGRPPRLPRPRPRPIFAPRP | 0.609 |
| RRIRHRPPRLPRPRPRPQRIPRP | -0.00331 |
| RRIRWRPPRLPRPRPRPQPNPRP | 0.127 |
| RRIRSRPPRLPRPRPRPARRPRP | 0.0588 |
| RRIRHRPPRLPRPRPRPQYHPRP | -0.972 |
| RRIRMRPPRLPRPRPRPVEIPRP | 0.00438 |
| RRIRFRPPRLPRPRPRPFLIPRP | -0.304 |
| RRIRFRPPRLPRPRPRPEKCPRP | 0.00859 |
| RRIRYRPPRLPRPRPRPTYMPRP | -1 |
| RRIRNRPPRLPRPRPRPENRPRP | -0.0205 |
| RRIRKRPPRLPRPRPRPEYVPRP | -0.00396 |
| RRIRIRPPRLPRPRPRPYNEPRP | -0.0675 |
| RRIRIRPPRLPRPRPRPEKYPRP | -0.423 |
| RRIRWRPPRLPRPRPRPFYDPRP | -0.21 |
| RRIRHRPPRLPRPRPRPMLVPRP | -0.155 |
| RRIRARPPRLPRPRPRPMSEPRP | 0.337 |
| RRIRIRPPRLPRPRPRPLGFPRP | -0.393 |
| RRIRTRPPRLPRPRPRPLTCPRP | -0.809 |
| RRIRMRPPRLPRPRPRPHHIPRP | -0.165 |
| RRIRLRPPRLPRPRPRPVCQPRP | 0.155 |
| RRIRNRPPRLPRPRPRPSVEPRP | -0.254 |

| Sequence | shrunken log2 fold change |
| --- | --- |
| RRIRERPPRLPRPRPRPQIRPRP | 0.0242 |
| RRIRPRPPRLPRPRPRPGCTPRP | 0.104 |
| RRIRFRPPRLPRPRPRPWACPRP | -0.15 |
| RRIRWRPPRLPRPRPRPYLVPRP | -0.195 |
| RRIRYRPPRLPRPRPRPFRFPRP | -0.83 |
| RRIRARPPRLPRPRPRPQRYPRP | -0.071 |
| RRIRKRPPRLPRPRPRPDKAPRP | 0.0987 |
| RRIRGRPPRLPRPRPRPFTGPRP | -0.186 |
| RRIRWRPPRLPRPRPRPDIAPRP | 0.0944 |
| RRIRCRPPRLPRPRPRPNFAPRP | -0.098 |
| RRIRKRPPRLPRPRPRPVNFPRP | -0.0174 |
| RRIRYRPPRLPRPRPRPQPRPRP | 0.463 |
| RRIRYRPPRLPRPRPRPPSLPRP | 0.289 |
| RRIRARPPRLPRPRPRPELAPRP | 1.39 |
| RRIRPRPPRLPRPRPRPFNPPRP | -0.296 |
| RRIRARPPRLPRPRPRPYMSPRP | 0.00296 |
| RRIRPRPPRLPRPRPRPLVWPRP | 0.412 |
| RRIRNRPPRLPRPRPRPGKSPRP | -0.0101 |
| RRIRSRPPRLPRPRPRPAVTPRP | 0.293 |
| RRIRMRPPRLPRPRPRPHYLPRP | 0.106 |
| RRIRYRPPRLPRPRPRPWHEPRP | -0.01 |
| RRIRTRPPRLPRPRPRPGPQPRP | 0.0198 |
| RRIRPRPPRLPRPRPRPNEQPRP | 0.062 |
| RRIRTRPPRLPRPRPRPKRTPRP | -0.132 |
| RRIRYRPPRLPRPRPRPHRMPRP | -1.51 |
